Laboratory results reported in patent US20170174783A1 (Zymeworks, published 2017).

Experiments:
[1] = molecular target: T1, HER2 on the surface of human tumour cell lines (human, UniProt P04626 23-1255); experiment: flow cytometry on SKOV3 cells
T1 construct: whole, on cells; also called ErbB2; Her2 receptor
Experimental: (§1) Binding of the test antibodies to the surface of SKOV3 cells was determined by flow cytometry. Cells were washed with PBS and resuspended in DMEM at 1×10⁵ cells/100 μl. 100 μl cell suspension was added into each microcentrifuge tube, followed by 10 μl/tube of the antibody variants. The tubes were incubated for 2 hr 4° C. on a rotator. The microcentrifuge tubes were centrifuged for 2 min 2000 RPM at room temperature and the cell pellets washed with 500 μl media. Each cell pellet was resuspended 100 μl of fluorochrome-labelled secondary antibody diluted in media to 2 μg/sample. The samples were then incubated for 1 hr at 4° C. on a rotator. After incubation, the cells were centrifuged for 2 min at 2000 RPM and washed in media. The cells were resuspended in 500 μl media, filtered in tube containing 5 μl propidium iodide (PI) and analyzed on a BD LSRII flow cytometer according to the manufacturer's instructions.

[2] = molecular target: T1, HER2 on the surface of human tumour …; experiment: flow cytometry on SKOV3 cells; remark: listed apart in the source
Experimental: as §1

[3] = molecular target: T1, HER2 on the surface of human tumour …; experiment: flow cytometry on MALME-3M cells

B1: OA4-scFv-BID2 (antibody)
chain 1: QVQLVQSGAEVKKPGESLKISCKGSGYSFTSYWIAWVRQMPGKGLEYMGLIYPGDSDTKYSPSFQGQVTISVDKSVSTAYLQWSSLKPSDSAVYFCARHDVGYCTDRTCAKWPEWLGVWGQGTLVTVSSGGGGSSGGGSGGGGSQSVLTQPPSVSAAPGQKVTISCSGSSSNIGNNYVSWYQQLPGTAPKLLIYDHTNRPAGVPDRFSGSKSGTSASLAISGFRSEDEADYYCASWDYTLSGWVFGGGTKLTVLGAAEPKSSDKTHTCPPCPAPELLGGPSVFLFPPKPKDTLMISRTPEVTCVVVDVSHEDPEVKFNWYVDGVEVHNAKTKPREEQYNSTYRVVSVLTVLHQDWLNGKEYKCKVSNKALPAPIEKTISKAKGQPREPQVYTYPPSRDELTKNQVSLTCLVKGFYPSDIAVEWESNGQPENNYKTTPPVLDSDGSFALVSKLTVDKSRWQQGNVFSCSVMHEALHNHYTQKSLSLSPGK
chain 2: not shown
notes: also called 878
[1]
  Kd: 12.4 nM
[2]
  fold difference in Bmax, OA4-scFv-BID2 against FSA-scFv-BID2: 1.96 fold
  fold difference in KD, OA4-scFv-BID2 against FSA-scFv-BID2: 2.03 fold
[3]
  EC50 (read off the curve): ~30 nM
